According to the RNAGym collection of RNA variant scans (doi:10.7554/elife.80360):

B1: HDV Ribozyme (parent)
chain: GGCCGGCAUGGUCCCAGCCUCCUCGCUGGCGCCGGCUGGGCAACAUUCCGAGGGGACCGUCCCCUCGGUAAUGGCGAAUGGGACCCA

Variants of: B1
Assay: self-cleavage, relative activity (ratio to wild type); higher = more cleavage; co-transcriptional
Variant GGCCGUCAUUGUCCCAGCCUCCUCGCUGGCGCCGGCUGGGCAACAUUCCGAGGGGACCGUCCCCUCGGUAAUGGCGAAUGGGACCCA [G6U G10U] has a self-cleavage of 0.0791.
GGCCGUCAUGGUCCCAGCCUCCUCGCUGGCGCCGGCUCGGCAACAUUCCGAGGGGACCGUCCCCUCGGUAAUGGCGAAUGGGACCCA [G6U G38C] showed a self-cleavage of 0.095.
For GGCCGGAAUGGUCCCAGCCUCCUCGCUGGCGCCGGCUGGGCAACGUUCCGAGGGGACCGUCCCCUCGGUAAUGGCGAAUGGGACCCA [C7A A45G], the self-cleavage was 0.705.
Work on GGCCGGAAUGGUCCCAGCCUCCUCGCUGGCGCCGGCUGGGCAACCUUCCGAGGGGACCGUCCCCUCGGUAAUGGCGAAUGGGACCCA [C7A A45C] yielded a self-cleavage of 0.0462.
With GGCCGUCAUGGUCCCAGCCUCCUCGCUGGCGCCGGCUGGGCAACAUUCCGAAGGGACCGUCCCCUCGGUAAUGGCGAAUGGGACCCA [G6U G52A] the self-cleavage was 0.739.
GGCCGUCAUGGUCCCAGCCUCCUCGCUGGCGCCGCCUGGGCAACAUUCCGAGGGGACCGUCCCCUCGGUAAUGGCGAAUGGGACCCA [G6U G35C] gave a self-cleavage of 0.0437.
GGCCGUCAUGGUCCCAGCCUCCUCGCUGUCGCCGGCUGGGCAACAUUCCGAGGGGACCGUCCCCUCGGUAAUGGCGAAUGGGACCCA [G6U G29U] showed a self-cleavage of 0.104.
Variant GGCCGGAAUGGUCCCAGCAUCCUCGCUGGCGCCGGCUGGGCAACAUUCCGAGGGGACCGUCCCCUCGGUAAUGGCGAAUGGGACCCA [C7A C19A] has a self-cleavage of 0.0277.
GGCCGGAAUGGUCCCAGCGUCCUCGCUGGCGCCGGCUGGGCAACAUUCCGAGGGGACCGUCCCCUCGGUAAUGGCGAAUGGGACCCA [C7A C19G] showed a self-cleavage of 0.145.
With GGCCGUCAUGGUCCCAGCCUCCUCGCUAGCGCCGGCUGGGCAACAUUCCGAGGGGACCGUCCCCUCGGUAAUGGCGAAUGGGACCCA [G6U G28A] the self-cleavage was 0.
For GGCCGUCAUGGUCCCAGCCUCCUCGCUCGCGCCGGCUGGGCAACAUUCCGAGGGGACCGUCCCCUCGGUAAUGGCGAAUGGGACCCA [G6U G28C], the self-cleavage was 0.0739.
GGCCGUCAUGGUCCCAGCCCCCUCGCUGGCGCCGGCUGGGCAACAUUCCGAGGGGACCGUCCCCUCGGUAAUGGCGAAUGGGACCCA [G6U U20C] showed a self-cleavage of 0.133.
GGCCGUCAUGGUCCCAGCCACCUCGCUGGCGCCGGCUGGGCAACAUUCCGAGGGGACCGUCCCCUCGGUAAUGGCGAAUGGGACCCA [G6U U20A] gave a self-cleavage of 0.0978.
In the case of GGCCGUCAUGGUCCCAGCCUCCUCGCUGGCUCCGGCUGGGCAACAUUCCGAGGGGACCGUCCCCUCGGUAAUGGCGAAUGGGACCCA [G6U G31U], the self-cleavage is reported as 0.121.
In the case of GGCCGUCAUGGUCCCAGCCUCCUCGCUGGCGCCGGCUGGGCAACAUUCCAAGGGGACCGUCCCCUCGGUAAUGGCGAAUGGGACCCA [G6U G50A], the self-cleavage is reported as 0.372.
Variant GGCCGUCAUGGUCCCAGCCUCCUCGCUGGCGCCGGCUGGGCAACAUUCCUAGGGGACCGUCCCCUCGGUAAUGGCGAAUGGGACCCA [G6U G50U] has a self-cleavage of 0.475.
In the case of GGCCGUCAUGGUCCCAGCCUCCUCGCUGGCGCCGGCUGGGCAACAUUCCGAGGGGACCGUCCCCUCGUUAAUGGCGAAUGGGACCCA [G6U G68U], the self-cleavage is reported as 0.554.
GGCCGGAAUGGUCCCAGUCUCCUCGCUGGCGCCGGCUGGGCAACAUUCCGAGGGGACCGUCCCCUCGGUAAUGGCGAAUGGGACCCA [C7A C18U] gave a self-cleavage of 0.229.
GGCCGUCAUGGUCCCAGCCUCCUCGCUGGCGCCGGCUGGACAACAUUCCGAGGGGACCGUCCCCUCGGUAAUGGCGAAUGGGACCCA [G6U G40A] showed a self-cleavage of 0.587.
With GGCCGUCAUGGUCCCAGCCUCCUCGCUGGCGCCGGCUGGCCAACAUUCCGAGGGGACCGUCCCCUCGGUAAUGGCGAAUGGGACCCA [G6U G40C] the self-cleavage was 0.193.
Variant GGCCGUCAUGGUCCCAGCCUCCUCGCUGGCGCCGGCUGGGCAACAUUCCGAGGGGACCGUCGCCUCGGUAAUGGCGAAUGGGACCCA [G6U C62G] has a self-cleavage of 0.332.
Variant GGCCGUCAUGGUCCCAGCCUCCUCGCUGGCGCCGGCUGGGCAACAUUCCGAGGGGACCGUCACCUCGGUAAUGGCGAAUGGGACCCA [G6U C62A] has a self-cleavage of 0.54.
For GGCCGUCAUGGUCCCAGCCUCCGCGCUGGCGCCGGCUGGGCAACAUUCCGAGGGGACCGUCCCCUCGGUAAUGGCGAAUGGGACCCA [G6U U23G], the self-cleavage was 0.178.
Work on GGCCGUCAUGGUCCCAGCCUCCUCGCUGGCGCCGGCUGGGCAACAUUCCGAGGGGACCGUCCCCUCGGUAAUGGCGAAUGGUACCCA [G6U G82U] yielded a self-cleavage of 0.
Work on GGCCGGAAUGGUCCCAGCCUCCUCGCUGGCGCCGGCUGGGCAACAUUCCGUGGGGACCGUCCCCUCGGUAAUGGCGAAUGGGACCCA [C7A A51U] yielded a self-cleavage of 0.538.
Work on GGCCGUCAUGGUCCCAGCCUCCUCGCUGGCGCCGGCUGGGCAACAUUCCGAGGGGACCGUCCCCUCCGUAAUGGCGAAUGGGACCCA [G6U G67C] yielded a self-cleavage of 0.73.
For GGCCGUCAUGGUCCCAGCCUCCUCGCUGGCGCCGGCUGGGCAACAUUCCGAGGGGACCGUCCCCUCGGUAAUGGCGAAUGGGACUCA [G6U C85U], the self-cleavage was 0.646.
For GGCCGUCAUGGUCCCAGCCUCCUCGCUGGCGCCGGCUGGGCAACAUUCCGAGGGGACUGUCCCCUCGGUAAUGGCGAAUGGGACCCA [G6U C58U], the self-cleavage was 0.617.
GGCCGUCAUGGUCCCAGCCUCCUCGCUGGCGCCGGCUGGGCAACAUUCCGAGGGGACAGUCCCCUCGGUAAUGGCGAAUGGGACCCA [G6U C58A] gave a self-cleavage of 0.672.
Work on GGCCGUCAUGGUCCCAGCCUCCUCGCUGGCGCCGGCUGGGCAACAUUCCGAGGGGACGGUCCCCUCGGUAAUGGCGAAUGGGACCCA [G6U C58G] yielded a self-cleavage of 0.628.
With GGCCGUCAUGGUCCCAGCCUCCUCGCUGGCGCCGGCUGGGCAACAUUCCGAGGGGACCGUCCCCUCGGUAAUGGCGAAUCGGACCCA [G6U G80C] the self-cleavage was 0.0898.
Work on GGCCGUCAUGGUCCCAGCCUCCUCGCUGGCGCCGGCUGGGCAACAUUCCGAGGGGACCGUUCCCUCGGUAAUGGCGAAUGGGACCCA [G6U C61U] yielded a self-cleavage of 0.525.
